± gives the uncertainty stated by the source.
experiment: amyloid nucleation score (Sup35N fusion, yeast selection) (log enrichment); library NNK2; higher = more nucleation; inactive = no reads after selection
In short: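 Libraries of peptides of 20 random codons fused to Sup35N were expressed in psi-negative yeast and induced 24 hours with 100 μM copper sulfate. Selection was 7 days at 30°C on medium lacking adenine and uracil, and plasmid inserts were Illumina-sequenced before and after selection. Nucleation score is the DiMSum log enrichment of output over input reads, centred on the mode score of non-aggregating sequences, and sequences with under 100 input reads were left out.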

Row | Substance | amyloid nucleation score
1 | RKVWLALVIFVCGCFIHYNG | -0.338 ± 0.64
2 | RLALWVKSSYVFIQESEELH | 3.2 ± 0.1
3 | RLCLYN | -1.2 ± 0.38
4 | RLECRLNSEPFYKDWTSSDS | 0.674 ± 0.39
5 | RLEVGGTN | 2.86 ± 0.11
6 | RLFRAFNLCYAAIRVGASPQ | 0.287 ± 0.26
7 | RLGEWECTHQVPFHSRWACG | -0.087 ± 0.76
8 | RLGSSEACPICLDHFGFIMF | -1.26 ± 0.54
9 | RLGYILNFELNYLII | 0.856 ± 0.17
10 | RLIDCVVVRVFINNVMLPAY | 5.45 ± 0.056
11 | RLLAIRIVILYSINCVLSLW | 0.129 ± 0.42
12 | RLLLRALYNPEYSRTQC | -1.43 ± 0.64
13 | RLMSCMFFNADITAPYWSRY | 6.235 ± 0.036
14 | RLPASWLVAPGCRWPCLPRN | 1.78 ± 0.22
15 | RLPTGSQNY | -0.281 ± 0.38
16 | RLRAQSHCAVAAGRNMEPWA | 5.986 ± 0.043
17 | RLRQEYGLLLRRGKSVP | 0.252 ± 0.35
18 | RLSCFMNRGVREDSDSN | -0.766 ± 0.61
19 | RLSSILYYVNHFS | -0.045 ± 0.41
20 | RLVNASEGGMHWANSSEFYA | 0.643 ± 0.24
21 | RLWYHVICVDYDGGEYRSSG | 0.388 ± 0.36
22 | RLYTREQLRTLWLSYMFLRK | -0.357 ± 0.29

Row | Substance | amyloid nucleation score
23 | RMDKAGRSGV | 0.656 ± 0.26
24 | RMFWISNKVSIPGPGLEAGN | inactive
25 | RMGSYDVNRNSFFKCSGRVS | -0.864 ± 0.78
26 | RMNEACTWTLIVYFYRSLL | 1.5 ± 0.12
27 | RMQHKHASVKGPTCVIQCTD | 1.62 ± 0.34
28 | RMSEYFDGLHRWFSGCWCAL | 0.256 ± 0.65
29 | RMSIFPGH | -1.04 ± 1.1
30 | RMSWVGSEHRLGVNSFNVLG | 0.201 ± 0.34
31 | RNCACCEWL | 4.58 ± 0.052
32 | RNCHYYILVTLCNVKNVYL | 8.283 ± 0.054
33 | RNCRDNYYSWRFKHLNRDRD | -0.076 ± 0.61
34 | RNFCGTRARSISYWAESERW | -0.089 ± 1.1
35 | RNFPMVFCAMV | inactive
36 | RNGCLTIEW | 1.78 ± 0.12
37 | RNKCYLLCLR | -0.384 ± 0.26
38 | RNKIMCNPYCQGRICRILSG | -0.777 ± 0.53
39 | RNRSKQDQWRNELSAGLHGV | -0.359 ± 0.45
40 | RNVCGCPGCYFNVDAILLWY | -1.2 ± 1.1
41 | RPCFCFSMFYGRKW | 0.553 ± 0.8
42 | RPDQTRF | -0.022 ± 0.5
43 | RPFKYCVRRLANRA | 0.135 ± 0.65
44 | RPKYIWDCWCTCFHFS | 3.63 ± 0.088

Row | Substance | amyloid nucleation score
45 | RPPPHCSCSSYSWDMYCILN | 8.58 ± 0.072
46 | RQQIFYSRDVQVNVGGN | inactive
47 | RQQMDS | 3.62 ± 0.073
48 | RQSKARLYCR | 0.397 ± 0.3
49 | RQVWLR | 0.854 ± 0.32
50 | RRFKSDLL | 1.57 ± 0.44
51 | RRGDKRMVTDFTLLTTGGGR | 0.543 ± 0.33
52 | RRGSSTIGADKESQVSLQN | -0.724 ± 1
53 | RRHEPVPSSK | 0.398 ± 0.66
54 | RRKSGLEFLLISNYIILGFR | inactive
55 | RRVPEKGLLGLYSGGLIAEV | -0.299 ± 0.74
56 | RRVVVTWMSNIPRLLSRGVN | 0.171 ± 0.23
57 | RRYDAVR | 1.3 ± 0.22
58 | RSGVESHRRKVPLVPMGVTV | 1.16 ± 0.36
59 | RSKQRCGTTDSPLAMVSKRV | 1.05 ± 0.31
60 | RSKVYTWR | 3.23 ± 0.071
61 | RSLIKSRVIWGRKCSSRFIR | -0.64 ± 0.32
62 | RSNRYGRDWNGVGTKWLFHD | -0.395 ± 0.45
63 | RSQSSYRIVQWIMYTCDNVL | inactive
64 | RSSASRNQFKESCFRAHQFP | -0.339 ± 0.27
65 | RSSCRRNSYLRQLVMSLVRY | -0.105 ± 1.1
66 | RSSRYLLPFNGGTPFYDSR | -0.284 ± 1.1

Row | Substance | amyloid nucleation score
67 | RSSVWGMRELIERKNTSGAW | 1.49 ± 0.19
68 | RSTDLVSIFRMDLAIRINVL | 0.815 ± 0.13
69 | RSVFDLMPRLYDYATNHLSY | -0.057 ± 0.34
70 | RSYDQVRSCHARMREDSNVQ | 4.61 ± 0.066
71 | RSYSGVFT | -0.926 ± 0.48
72 | RTHWELRKNLLCPFVDKIY | -1.2 ± 0.78
73 | RTIANDWHSCFSGRNLHSSW | 0.808 ± 0.74
74 | RTIVFTLWRDGITKFMVNRD | 0.452 ± 0.43
75 | RTLNGADFS | 0.486 ± 0.8
76 | RTMLSGLLGYRSRSLADSPF | -0.199 ± 0.76
77 | RTPSCSL | -0.916 ± 1
78 | RTVEWRDNYLLGRILLFNPV | -0.187 ± 0.55
79 | RVDKGVEFSSTSGSVRNFSL | -0.83 ± 1.1
80 | RVEGFRFYFEVRLGSVSRKL | -0.42 ± 0.76
81 | RVERLWVLHSKATQRRM | 0.063 ± 0.79
82 | RVIDLVTCKAHSGWSVLGYM | -0.402 ± 0.37
83 | RVLFHSSFGRGLVCEISVHV | -1.01 ± 0.62
84 | RVLSIRSFP | 1.64 ± 0.13
85 | RVQAGFIRAGCNIEARKFSG | -0.48 ± 0.28
86 | RVRGGEYRRSYTKWWEGCGS | 3.19 ± 0.091
